In experiment [1] the target is T1, ACE (Homo sapiens, UniProt P12821).
T1 construct: purchased Sigma-Aldrich
The following applies: cited from earlier work. The text has this:
Recently, several ACEI peptides have been identified and evaluated in brewed wine. Wu et al. discovered a polypeptide in Chinese Baijiu for the first time, which indicated an ACE inhibitory effect with an IC50 of […] [11]. […] Beer is one of the most globally cons ... || In this study, peptides in stout beer were identified using UPLC-Q-Orbitrap-MS^2, and a total of 41 peptides with ALC ≥ 85% were selected (Table 1). The peptides PMAPLPRSGPE and […] from Italian beer, LPQQQAQFK, STEWHLD, PPPVHD, LVLPGELAK, LAVMQQQQQQ, PPPVHDTD, PPVPHDTD, LPEDAKVE, HAVSEGTKAVT, LPGELAK, PMAPLPRSGEP, TVSGF, LNFDPNR, LALDTRVG, LDTRVGV, and RVALVY from draft beer, which were previously identified, also appeared in our results. The polypeptides present in beer primarily originate from malt protein. Previous studies have shown that the soluble protein content in m ...

Experiment [2] concerns the target T1, ACE. As to the kind of experiment: ACEI activity in vitro (ACE activity assay kit). Format: biochemical. The following applies: 10 μL ACE + 40 μL inhibitor + 50 μL substrate, fluorescence ex 320 nm/em 405 nm, 37 °C, 30 min, synthesized peptide, triplicate, mean ± SD. How it is done:
ACEI activity determination was determined using an assay kit. Briefly, 10 μL of ACE and 40 μL of the inhibitor were added to the microplate and mixed thoroughly, then 50 μL of the substrate was added to start the reaction. The fluorescence was detected at an excitation wavelength of 320 nm and an emission wavelength of 405 nm at 37 °C for 30 min. The ACE activity of the peptide was calculated as follows:ACEI activity = [(KStd − KSample)/KStd] × DF × 100% where KSample means the slope of the sample curve after subtracting the blank. (RFU/min); KStd means the slope of the standard curve after subtracting the blank (RFU/min); DF means the dilution factor.
Each experiment was conducted in triplicate, the data were presented as mean ± standard deviation. SYBYL-X 2.1.1 software was utilized for evaluating the molecular docking visualization. LigPlot 1.4.5 software was employed to illustrate the 2D interactions. MD simulation data analysis was performed using GROMACS 2022.3 software.

Where [3] appears, read: known ACEI peptides in BIOPEP/AHTPDB.
[4] abbreviates: peptides identified from Qingke Baijiu.

Read-outs that look alike come from different tables or passages of the source. No end group written: not given here.

One may read the IC50 as the concentration that gives 50% inhibition.

T1 sequence (P12821 30-1306, species assumed): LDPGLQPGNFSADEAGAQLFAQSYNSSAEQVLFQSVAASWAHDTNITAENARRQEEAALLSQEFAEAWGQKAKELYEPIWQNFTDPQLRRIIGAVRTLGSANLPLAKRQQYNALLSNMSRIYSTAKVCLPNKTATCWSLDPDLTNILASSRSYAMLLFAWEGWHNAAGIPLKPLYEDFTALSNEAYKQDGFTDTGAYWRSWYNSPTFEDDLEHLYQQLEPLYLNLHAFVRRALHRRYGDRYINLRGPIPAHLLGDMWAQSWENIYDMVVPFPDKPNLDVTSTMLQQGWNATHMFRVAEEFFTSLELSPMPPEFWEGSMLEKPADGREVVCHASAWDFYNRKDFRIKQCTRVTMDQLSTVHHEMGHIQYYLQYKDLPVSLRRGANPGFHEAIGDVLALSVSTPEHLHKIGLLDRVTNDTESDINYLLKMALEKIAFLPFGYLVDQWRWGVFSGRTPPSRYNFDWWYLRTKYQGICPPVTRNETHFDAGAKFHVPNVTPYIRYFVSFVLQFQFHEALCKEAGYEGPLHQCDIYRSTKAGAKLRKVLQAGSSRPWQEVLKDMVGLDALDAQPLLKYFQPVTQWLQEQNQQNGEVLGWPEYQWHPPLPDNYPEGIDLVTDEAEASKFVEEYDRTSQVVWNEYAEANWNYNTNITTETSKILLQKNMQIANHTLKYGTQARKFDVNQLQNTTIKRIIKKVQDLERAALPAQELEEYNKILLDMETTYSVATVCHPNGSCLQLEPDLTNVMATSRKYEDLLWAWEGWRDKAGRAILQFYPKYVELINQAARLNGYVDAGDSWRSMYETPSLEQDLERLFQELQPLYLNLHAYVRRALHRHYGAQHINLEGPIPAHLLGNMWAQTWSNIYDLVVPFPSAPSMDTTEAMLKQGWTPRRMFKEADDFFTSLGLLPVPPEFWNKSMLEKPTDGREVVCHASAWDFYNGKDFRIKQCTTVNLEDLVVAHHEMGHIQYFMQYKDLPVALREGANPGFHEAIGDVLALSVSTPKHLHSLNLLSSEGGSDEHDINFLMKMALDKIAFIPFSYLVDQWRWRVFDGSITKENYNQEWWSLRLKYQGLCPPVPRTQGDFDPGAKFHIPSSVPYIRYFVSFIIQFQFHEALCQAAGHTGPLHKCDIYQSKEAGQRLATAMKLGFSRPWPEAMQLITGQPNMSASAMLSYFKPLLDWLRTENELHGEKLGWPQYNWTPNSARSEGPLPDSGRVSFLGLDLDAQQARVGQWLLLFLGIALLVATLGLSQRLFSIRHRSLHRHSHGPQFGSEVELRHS

On to “LNFDPNR [peptide of stout beer; already known ACEI peptide]”, for which the IC50 with ACE [1] (setting [3]) is 38.6 µM. Consider “FPLQPHQP [peptide from Qingke Baijiu, reference compound]”, for which the IC50 in the experiment with ACE [1] (setting [4]) was 5.03 µM. As to DLGGFFGFQR [DLGGFFGFQR], the IC50 on ACE [2] came out at 24.5 µM.

Take “LPVGP [peptide from Qingke Baijiu, reference compound]”: the IC50 with ACE [1] (setting [4]) is 9.05 µM. Take “LPQQQAQFK [peptide of stout beer; already known ACEI peptide]”: the IC50 with ACE [1] (setting [3]) was 26.4 µM.

The values above are taken from publication PMC11241375, “In Silico Screening of Bioactive Peptides in Stout Beer and Analysis of ACE Inhibitory Activity” (Foods, 2024).
